{"source": "patent US20220363757A1", "about": "(SYMPHOGEN A S, published 2022)", "binders": {"B1": {"name": "Fab fragment of antibody 15532 (Fab, V domains shown, not shown: a dimerising Fc or GST)", "VH": "QVQLQQWGAGLLRPSETLSLTCAVYGESFSGYYWNWIRQPPGKGLEWIGEINHSGSTNYNPSLKSRVTISVDTSKTQFSLKLSSVTAADTAVYYCARGWDLLDWNDYWNEYWGQGTLVTVSS", "VL": "EIVLTQSPATLSLSPGERATLSCRASQSVSSYLAWYQQKPGQAPRLLIYDASNRATGIPARFSGSGSGTDFTLTISSLEPEDFAVYYCQQRSNWPLTFGGGTKVEIKR", "notes": "monomeric Fab made by GingisKHAN digestion of the IgG1"}, "B2": {"name": "Fab fragment of antibody 15431 (Fab, V domains shown, not shown: a dimerising Fc or GST)", "VH": "QVQLQQSGPGLVKPSQTLSLTCAISGDSVSSNSAAWNWIRQSPSRGLEWLGRTYYRSKWYNDYAVSVKSRITINPDTSKNQFSLQLNSVTPEDTAVYYCARDDDWNDFDYWGQGTLVTVSS", "VL": "EIVLTQSPATLSLSPGERATLSCRASQSVSSYLAWYQQKPGQAPRLLIYDASNRATGIPARFSGSGSGTDFTLTISSLEPEDFAVYYCQQRSNWPLTFGGGTKVEIKR", "notes": "as for B1"}, "B3": {"name": "Fab fragment of antibody 15011 (Fab, V domains shown, not shown: a dimerising Fc or GST)", "VH": "EVQLLESGGGLVQPGGSLRLSCAASGFDFRSYAMMWVRQAPGKGLEWVGGINGEVGGSNTYYAPAVKGRATISRDNSKNTLYLQMNSLRAEDTAVYYCVKGAGACGICNDDIDAWGQGTLVTVSS", "VL": "SYELTQDPAVSVALGQTVRITCSGAGSYAGSYYYGWHQQKPGQAPVTVIYDNDKRPSNIPDRFSGSSSGNTASLTITGAQAEDEADYYCGSTNDNDDGGLFGSGTKVTVLG", "notes": "as for B1"}, "B4": {"name": "Fab fragment of antibody 15572 (Fab, V domains shown, not shown: a dimerising Fc or GST)", "VH": "QLQLQESGPGLVKPSETLSLTCTVSGDSISSSSYYWGWIRQPPGKGLEWIGSIFYSGNTYYNPSLKSRVTISVDTSKNQFSLKLSSVTAADTAVYYCAREDDFLTDYYGAFDIWGQGTMVTVSS", "VL": "not shown", "notes": "as for B1"}}, "assay_in_all_cases": "SPR, Fab over captured mutant LAG-3-Fc;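 also: LAG-3 fusion proteins captured on an anti-human IgG Fc sensor chip and read on an IBIS MX96 biosensor, Fab association and dissociation each 15 min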", "key": {"[1]": {"target": "T1, human LAG-3 domain 1-2 Fc fusion, chimeric construct #27 (mutated region AA 161-166) (human, UniProt P18627 23-266)", "T1 construct": "not shown: human IgG1 Fc, AA P101-K330", "T1 chain": "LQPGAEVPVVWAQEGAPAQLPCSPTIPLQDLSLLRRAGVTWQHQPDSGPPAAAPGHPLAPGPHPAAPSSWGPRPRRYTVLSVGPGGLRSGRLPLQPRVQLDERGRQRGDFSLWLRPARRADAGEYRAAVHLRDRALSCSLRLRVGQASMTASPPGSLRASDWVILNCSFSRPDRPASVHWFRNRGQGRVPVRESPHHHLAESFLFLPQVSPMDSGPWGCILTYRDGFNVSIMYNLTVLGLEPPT"}, "[2]": {"target": "T2, human LAG-3 domain 1-2 Fc fusion, chimeric construct #7 (mutated region AA 53-60) (human, UniProt P18627 23-266)", "T2 construct": "not shown: human IgG1 Fc, AA P101-K330", "T2 chain": "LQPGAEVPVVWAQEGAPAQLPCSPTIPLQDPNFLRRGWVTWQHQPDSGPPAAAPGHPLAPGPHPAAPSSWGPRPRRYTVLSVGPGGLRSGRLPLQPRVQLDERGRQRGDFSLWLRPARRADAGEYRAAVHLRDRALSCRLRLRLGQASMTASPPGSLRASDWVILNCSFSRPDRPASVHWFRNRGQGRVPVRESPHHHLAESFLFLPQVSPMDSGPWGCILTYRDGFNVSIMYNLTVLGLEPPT"}, "[3]": {"target": "T3, human LAG-3 domain 1-2 Fc fusion, chimeric construct #2 (mutated region AA 29-30) (human, UniProt P18627 23-266)", "T3 construct": "not shown: human IgG1 Fc, AA P101-K330", "T3 chain": "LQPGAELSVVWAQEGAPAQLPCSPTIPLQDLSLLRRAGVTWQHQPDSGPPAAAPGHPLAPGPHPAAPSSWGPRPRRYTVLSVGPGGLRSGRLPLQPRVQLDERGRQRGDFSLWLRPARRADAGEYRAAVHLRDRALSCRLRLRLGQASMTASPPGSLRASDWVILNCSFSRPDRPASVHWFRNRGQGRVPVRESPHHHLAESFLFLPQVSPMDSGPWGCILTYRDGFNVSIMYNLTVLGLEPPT"}, "[4]": {"target": "T4, human LAG-3 domain 1-2 Fc fusion, chimeric construct #23 (mutated region AA 148-152) (human, UniProt P18627 23-266)", "T4 construct": "not shown: human IgG1 Fc, AA P101-K330", "T4 chain": "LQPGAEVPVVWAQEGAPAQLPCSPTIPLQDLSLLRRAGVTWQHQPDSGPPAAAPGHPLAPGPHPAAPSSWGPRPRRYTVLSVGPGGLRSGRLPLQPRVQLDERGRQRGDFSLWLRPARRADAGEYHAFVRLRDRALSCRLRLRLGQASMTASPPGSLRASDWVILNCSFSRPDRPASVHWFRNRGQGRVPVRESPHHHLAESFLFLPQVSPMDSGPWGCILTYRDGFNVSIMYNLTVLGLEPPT"}, "[5]": {"target": "T5, human LAG-3 domain 1-2 Fc fusion, chimeric construct #17 (mutated region AA 114-117) (human, UniProt P18627 23-266)", "T5 construct": "not shown: human IgG1 Fc, AA P101-K330", "T5 chain": "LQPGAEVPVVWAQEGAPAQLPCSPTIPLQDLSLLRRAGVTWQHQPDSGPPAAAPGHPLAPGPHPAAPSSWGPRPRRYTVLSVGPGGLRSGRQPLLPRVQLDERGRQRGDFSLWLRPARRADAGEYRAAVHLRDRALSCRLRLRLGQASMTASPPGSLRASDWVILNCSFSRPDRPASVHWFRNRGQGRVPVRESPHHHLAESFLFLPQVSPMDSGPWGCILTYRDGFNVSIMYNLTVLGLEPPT"}, "[6]": {"target": "T6, human LAG-3 domain 1-2 Fc fusion, chimeric construct #15 (mutated region AA 95-100) (human, UniProt P18627 23-266)", "T6 construct": "not shown: human IgG1 Fc, AA P101-K330", "T6 chain": "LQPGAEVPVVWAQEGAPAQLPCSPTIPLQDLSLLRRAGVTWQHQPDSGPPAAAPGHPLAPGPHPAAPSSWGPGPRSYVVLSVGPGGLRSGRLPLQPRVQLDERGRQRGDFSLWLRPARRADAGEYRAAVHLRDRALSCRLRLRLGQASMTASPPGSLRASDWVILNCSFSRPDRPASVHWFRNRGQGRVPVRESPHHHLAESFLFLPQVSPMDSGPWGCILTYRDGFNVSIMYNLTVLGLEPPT"}, "[7]": {"target": "T7, human LAG-3 domain 1-2 Fc fusion, chimeric construct #28 (mutated region AA 84-90, cynomolgus backmutations) (human, UniProt P18627 23-266)", "T7 construct": "not shown: human IgG1 Fc, AA P101-K330", "T7 chain": "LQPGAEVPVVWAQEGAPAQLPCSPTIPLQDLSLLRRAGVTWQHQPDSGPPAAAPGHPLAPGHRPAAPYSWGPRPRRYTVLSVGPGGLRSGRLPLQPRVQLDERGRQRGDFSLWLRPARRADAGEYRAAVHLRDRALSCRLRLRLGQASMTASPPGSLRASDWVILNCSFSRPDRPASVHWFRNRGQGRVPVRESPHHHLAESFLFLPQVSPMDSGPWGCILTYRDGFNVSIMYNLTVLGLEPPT"}, "[8]": {"target": "T8, human LAG-3 domain 1-2 Fc fusion, chimeric construct #25 (mutated region AA 154-158) (human, UniProt P18627 23-266)", "T8 construct": "not shown: human IgG1 Fc, AA P101-K330", "T8 chain": "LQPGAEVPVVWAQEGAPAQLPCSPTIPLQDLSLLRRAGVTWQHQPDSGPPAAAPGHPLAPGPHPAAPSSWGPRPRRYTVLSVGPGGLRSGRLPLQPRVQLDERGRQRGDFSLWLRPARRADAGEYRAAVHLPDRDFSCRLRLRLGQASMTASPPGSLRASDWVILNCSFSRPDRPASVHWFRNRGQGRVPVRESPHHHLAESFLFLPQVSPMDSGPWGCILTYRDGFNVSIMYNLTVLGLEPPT"}, "[9]": {"target": "T9, human LAG-3 domain 1-2 Fc fusion, chimeric construct #1 (mutated region AA 23-30) (human, UniProt P18627 31-266)", "T9 construct": "not shown: human IgG1 Fc, AA P101-K330", "T9 sequence": "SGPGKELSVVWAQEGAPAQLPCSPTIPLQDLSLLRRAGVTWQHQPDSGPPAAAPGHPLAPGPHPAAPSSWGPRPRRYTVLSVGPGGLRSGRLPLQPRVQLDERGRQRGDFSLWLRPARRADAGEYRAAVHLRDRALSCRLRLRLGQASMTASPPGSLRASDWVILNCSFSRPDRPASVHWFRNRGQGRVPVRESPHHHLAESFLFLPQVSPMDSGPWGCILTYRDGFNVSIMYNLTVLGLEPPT"}}}
{"binder": "B1", "values": [{"measurement": "KD mutant/KD wild type", "setting": "[1]", "value": 0.8, "unit": "fold"}, {"measurement": "KD mutant/KD wild type", "setting": "[2]", "value": 3.4, "unit": "fold"}, {"measurement": "KD mutant/KD wild type", "setting": "[3]", "value": 3.1, "unit": "fold"}, {"measurement": "KD mutant/KD wild type", "setting": "[4]", "value": 2.5, "unit": "fold"}, {"measurement": "KD mutant/KD wild type", "setting": "[5]", "value": 1.4, "unit": "fold"}, {"measurement": "KD mutant/KD wild type", "setting": "[6]", "value": 6.5, "unit": "fold"}, {"measurement": "KD mutant/KD wild type", "setting": "[7]", "value": 4.8, "unit": "fold"}, {"measurement": "KD mutant/KD wild type", "setting": "[8]", "value": 1.1, "unit": "fold"}, {"measurement": "KD mutant/KD wild type", "setting": "[9]", "value": 3.2, "unit": "fold"}]}
{"binder": "B2", "values": [{"measurement": "KD mutant/KD wild type", "setting": "[1]", "value": 1.3, "unit": "fold"}, {"measurement": "binding result", "setting": "[2]", "value": "no binding (tested: 300 nM)"}, {"measurement": "binding result", "setting": "[3]", "value": "no binding (tested: 300 nM)"}, {"measurement": "KD mutant/KD wild type", "setting": "[4]", "value": 3.5, "unit": "fold"}, {"measurement": "KD mutant/KD wild type", "setting": "[5]", "value": 0.5, "unit": "fold"}, {"measurement": "binding result", "setting": "[6]", "value": "no binding (tested: 300 nM)"}, {"measurement": "KD mutant/KD wild type", "setting": "[7]", "value": 1.1, "unit": "fold"}, {"measurement": "KD mutant/KD wild type", "setting": "[8]", "value": 0.8, "unit": "fold"}, {"measurement": "binding result", "setting": "[9]", "value": "no binding (tested: 300 nM)"}]}
{"binder": "B3", "values": [{"measurement": "KD mutant/KD wild type", "setting": "[1]", "value": 2.3, "unit": "fold"}, {"measurement": "KD mutant/KD wild type", "setting": "[2]", "value": 0.5, "unit": "fold"}, {"measurement": "KD mutant/KD wild type", "setting": "[3]", "value": 0.5, "unit": "fold"}, {"measurement": "KD mutant/KD wild type", "setting": "[4]", "value": 2, "unit": "fold"}, {"measurement": "KD mutant/KD wild type", "setting": "[5]", "value": 2.6, "unit": "fold"}, {"measurement": "KD mutant/KD wild type", "setting": "[6]", "value": 1.9, "unit": "fold"}, {"measurement": "KD mutant/KD wild type", "setting": "[7]", "value": 0.6, "unit": "fold"}, {"measurement": "KD mutant/KD wild type", "setting": "[8]", "value": 1.9, "unit": "fold"}, {"measurement": "KD mutant/KD wild type", "setting": "[9]", "value": 0.5, "unit": "fold"}]}
{"binder": "B4", "values": [{"measurement": "KD mutant/KD wild type", "setting": "[1]", "value": 1.7, "unit": "fold"}, {"measurement": "binding result", "setting": "[2]", "value": "no binding (tested: 300 nM)"}, {"measurement": "binding result", "setting": "[3]", "value": "no binding (tested: 300 nM)"}, {"measurement": "binding result", "setting": "[4]", "value": "no binding (tested: 300 nM)"}, {"measurement": "KD mutant/KD wild type", "setting": "[5]", "value": 0.5, "unit": "fold"}, {"measurement": "KD mutant/KD wild type", "setting": "[6]", "value": 3.1, "unit": "fold"}, {"measurement": "KD mutant/KD wild type", "setting": "[7]", "value": 0.5, "unit": "fold"}, {"measurement": "binding result", "setting": "[8]", "value": "no binding (tested: 300 nM)"}, {"measurement": "binding result", "setting": "[9]", "value": "no binding (tested: 300 nM)"}]}
